Here are results for one substance from paper doi:10.1101/188169.

The target in the test is endogenous α-SYN from human postmortem brain (substantia nigra) (human (endogenous in postmortem brain)) (UniProt P37840).

On to “endogenous α-SYN from human postmortem brain (substantia nigra) (from UniProt P37840 1-140) (natural protein)”, for which the percent of detected α-SYN that is oligomeric (PD brain) was determined as 56% and the percent of detected α-SYN that is oligomeric (control brain) turned out to be 23%.
